Reference: patent publication US10034836B2, “Formulations of guanylate cyclase C agonists and methods of use” (SYNERGY PHARMACEUTICALS, INC., priority 2008, dated 2018)
Bridges are numbered along the chain shown (N, C = ends). Primed or numbered codes have the meaning given here. Where no end group is shown, it is not given here. [ ]: non-standard residue; d: D form. PEG3′ = polyethylene glycol such as aminoethyloxy-ethyloxy-acetic acid (AeeA), and polymers thereof

Biological target: T1, intestinal GC-C receptor (Homo sapiens, UniProt P25092)
T1 construct: confluent monolayers of T-84 cells in 24-well plates; host or cells: T84 human colon carcinoma cells
T1 sequence (P25092 24-1073): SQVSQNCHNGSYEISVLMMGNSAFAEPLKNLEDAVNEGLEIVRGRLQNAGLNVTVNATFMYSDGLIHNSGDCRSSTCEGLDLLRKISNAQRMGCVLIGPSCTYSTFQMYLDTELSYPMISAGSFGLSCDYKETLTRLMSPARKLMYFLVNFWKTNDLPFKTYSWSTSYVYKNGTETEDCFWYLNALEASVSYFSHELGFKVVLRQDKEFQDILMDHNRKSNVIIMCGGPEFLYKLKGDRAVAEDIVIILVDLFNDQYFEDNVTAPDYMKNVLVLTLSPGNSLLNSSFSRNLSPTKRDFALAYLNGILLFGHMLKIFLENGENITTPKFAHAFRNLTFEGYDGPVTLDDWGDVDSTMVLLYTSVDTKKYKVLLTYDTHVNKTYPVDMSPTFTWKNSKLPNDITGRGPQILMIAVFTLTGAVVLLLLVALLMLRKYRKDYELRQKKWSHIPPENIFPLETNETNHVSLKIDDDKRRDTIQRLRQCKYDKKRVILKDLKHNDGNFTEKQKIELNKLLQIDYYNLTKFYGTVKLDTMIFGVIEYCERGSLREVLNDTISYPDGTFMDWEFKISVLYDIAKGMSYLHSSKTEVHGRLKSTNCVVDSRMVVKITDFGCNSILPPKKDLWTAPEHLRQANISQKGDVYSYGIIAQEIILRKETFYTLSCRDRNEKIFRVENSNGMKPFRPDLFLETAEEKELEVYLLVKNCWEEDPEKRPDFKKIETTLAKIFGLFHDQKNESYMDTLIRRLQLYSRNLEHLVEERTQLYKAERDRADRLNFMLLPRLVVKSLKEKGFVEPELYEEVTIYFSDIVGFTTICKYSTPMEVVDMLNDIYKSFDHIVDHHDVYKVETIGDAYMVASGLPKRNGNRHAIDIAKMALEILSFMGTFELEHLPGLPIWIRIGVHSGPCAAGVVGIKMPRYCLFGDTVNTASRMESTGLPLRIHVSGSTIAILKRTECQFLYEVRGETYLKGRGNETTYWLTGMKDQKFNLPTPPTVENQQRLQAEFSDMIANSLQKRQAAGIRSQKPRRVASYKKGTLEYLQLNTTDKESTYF
Assay: Cyclic GMP stimulation assay in T84 cells
Format: cell-based
Details: for ability to stimulate cGMP synthesis in T84 cells relative to SP-304: 30 min exposure (FIG. 5); for potency to stimulate cGMP synthesis in T84 cells relative to SP-333: peggylated analogs of SP-333, 30 min (FIG. 8); for potency in cGMP stimulation assay relative to SP-339 (linaclotide): 30 min exposure (FIG. 6)
Excerpt: FIG. 4: Biological activity of truncated peptides of 16-mer SP-304, as measured by stimulation of cGMP synthesis in T84 cells. SP-338 15-mer peptide is indentical to SP-304 except that it lacks Leu at the C-terminus. SP-327, SP-329 and SP-331 lack Leu at their C-termini relative to their corresponding parents, SP-326, SP-328 and SP-330, respectively. Data points shown are the average of duplicate measurements.
FIG. 5: Stimulation of cGMP synthesis in T84 cells by SP-304 and similar analogs. T84 cells were exposed to test peptides for 30 min and cell lysates were then used to determine intracellular cGMP levels. Data points shown are the average of triplicate measurements±SD.
FIG. 6: Stimulation of cGMP synthesis in T84 cells by SP-339 (linaclotide) and other linaclotide analogs. T84 cells were exposed to test peptides for 30 min and cell lysates were then used to determine intracellular cGMP levels. Data points shown are the average of triplicate measurements±SD.
FIG. 8: Stimulation of cGMP synthesis in T84 cells by the peggylated analogs of SP-333. T84 cells were exposed to the indicated peptides for 30 min and cell lysates were used to determine intracellular cGMP levels. Data points shown are the average of triplicate measurements±SD.
After the 30 min incubation, the medium was aspirated and the reaction was terminated by the addition of 3% perchloric acid. Following centrifugation and the addition of NaOH (0.1 N) to neutralize the pH, intracellular cGMP levels were determined in lysates using a cGMP ELISA kit (Cat. No. 581021; Cayman Chemical, Ann Arbor, Mich.). Peptide incubations were run in duplicate, and samples taken from each incubation were run as duplicates in the ELISA test.
The ability of the GCC agonist peptide to bind to and activate the intestinal GC-C receptor was tested using T84 human colon carcinoma cell line. Human T84 colon carcinoma cells were obtained from the American Type Culture Collection. Cells were grown in a 1:1 mixture of Ham's F-12 medium and Dulbecco's modified Eagle's medium (DMEM) supplemented with 10% fetal bovine serum, 100 U penicillin/ml, and 100 μg/ml streptomycin. The cells were fed fresh medium every third day and split at a confluence of approximately 80%.
Biological activity of the GCC agonist peptides was assayed as previously reported (Shailubhai, et al., Cancer Research 60, 5151-5157 (2000)). Briefly, the confluent monolayers of T-84 cells in 24-well plates were washed twice with 250 μl of DMEM containing 50 mM HEPES (pH 7.4), pre-incubated at 37° C. for 10 min with 250 μl of DMEM containing 50 mM HEPES (pH 7.4) and 1 mM isobutylmethylxanthine (IBMX), followed by incubation with GCC agonist peptides (0.1 nM to 10 µM) for 30 min. The medium was aspirated, and the reaction was terminated by the addition of 3% perchloric acid. Following centrifugation, and neutralization with 0.1 N NaOH, the supernatant was used directly for measurements of cGMP using an ELISA kit (Caymen Chemical, Ann Arbor, Mich.).
An additional strategy to render peptides more resistant towards digestion by digestive proteases is to peggylate them at the N- and C-terminus. The peptide SP-333 was peggylated with the aminoethyloxy-ethyloxy-acetic acid (Aeea) group at the C-terminus (SP-347) or at the N-terminus (SP-350) or at both termini (SP-343). Cyclic GMP synthesis in T84 cells was measured by the method as described above.

| Substance | potency to stimulate cGMP synthesis in T84 cells relative to SP-333 | potency in cGMP stimulation assay relative to SP-339 (linaclotide) | further results |
| --- | --- | --- | --- |
| Asn^1-Asp^2-Glu^3-Cys^4-Glu^5-Leu^6-Cys^7-Val^8-Asn^9-Val^10-Ala^11-Cys^12-Thr^13-Gly^14-Cys^15 (NDECELCVNVACTGC) [SP-338] |  |  | biological activity retained relative to full length 16-mer SP-304 (cGMP synthesis in T84 cells) (peptide 1.0 μM, 30 min (FIG. 4)): about 80% |
| dAsn^1-dAsp^2-dGlu^3-Cys^4-Glu^5-Leu^6-Cys^7-Val^8-Asn^9-Val^10-Ala^11-Cys^12-Thr^13-Gly^14-Cys^15-dLeu^16 ([dN][dD][dE]CELCVNVACTGC[dL]; disulfide (positions not given here); also: disulfides, number and pairing not given here) [SP-335] |  |  | ability to stimulate cGMP synthesis in T84 cells relative to SP-304: comparable ability |
| dAsn^1-Asp^2-Glu^3-Cys^4-Glu^5-Leu^6-Cys^7-Val^8-Asn^9-Val^10-Ala^11-Cys^12-Thr^13-Gly^14-Cys^15-dLeu^16-PEG3 ([dN]DECELCVNVACTGC[dL][PEG3′]; ends and bridges not checked) [SP-347] | comparable to SP-333 |  |  |
| Asn^1-Phe^2-Cys^3-Cys^4-Glu^5-Ser^6-Cys^7-Cys^8-Asn^9-Pro^10-Ala^11-Cys^12-Thr^13-Gly^14-Cys^15-Tyr^16 (NFCCESCCNPACTGCY; disulfide 4-12, 7-15, 3-8) [SP-353] |  | more potent than SP-339 |  |
| Cys^1-Cys^2-Glu^3-Tyr^4-Cys^5-Cys^6-Asn^7-Pro^8-Ala^9-Cys^10-Thr^11-Gly^12-Cys^13-dTyr^14 [SP-355] |  | considerably less potency |  |
| Asn^1-Phe^2-Cys^3-Cys^4-Glu^5-Phe^6-Cys^7-Cys^8-Asn^9-Pro^10-Ala^11-Cys^12-Thr^13-Gly^14-Cys^15-Tyr^16 (NFCCEFCCNPACTGCY; disulfide 4-12, 7-15, 3-8) [SP-354] |  | virtually identical to SP-339 |  |
| PEG3-dAsn^1-Asp^2-Glu^3-Cys^4-Glu^5-Leu^6-Cys^7-Val^8-Asn^9-Val^10-Ala^11-Cys^12-Thr^13-Gly^14-Cys^15-dLeu^16 ([PEG3′][dN]DECELCVNVACTGC[dL]; ends and bridges not checked) [SP-350] | comparable to SP-333 |  |  |
| PEG3-dAsn^1-Asp^2-Glu^3-Cys^4-Glu^5-Leu^6-Cys^7-Val^8-Asn^9-Val^10-Ala^11-Cys^12-Thr^13-Gly^14-Cys^15-dLeu^16-PEG3 ([PEG3′][dN]DECELCVNVACTGC[dL][PEG3′]; ends and bridges not checked) [SP-343] | considerably less potent |  |  |
| dAsn^1-Asp^2-Glu^3-Cys^4-Glu^5-dLeu^6-Cys^7-Val^8-Asn^9-Val^10-Ala^11-Cys^12-Thr^13-Gly^14-Cys^15-dLeu^16 ([dN]DECE[dL]CVNVACTGC[dL]; ends and bridges not checked) [SP-337] |  |  | ability to stimulate cGMP synthesis in T84 cells relative to SP-304: virtually complete loss of biological activity |
